What all share (experiment): native gel or EMSA
The target of test [1] is H3K18Cub nucleosome core particle (UniProt P68431).
For test [2], the target named is H3K18CubK23Cub nucleosome core particle (UniProt P68431).
Test [3] addresses H3K23Cub nucleosome core particle (UniProt P68431).
The target of test [4] is unmodified nucleosome core particle (recombinant H3, H2A, H2B, H4 octamer on He601 DNA) (UniProt P68431).

Take “N-terminal truncated mouse DNMT1 (residues 291–1620) (from UniProt P13864 291-1620) (enzyme)”: the Kd is 116 nM in test [1], 13 nM in test [2], 136 nM in test [3] and 193 nM in test [4]. Moreover, the percent of NCP shifted at 250 nM mDNMT1 in test [1] and in test [3] was 70% in each case.

Broadly, the Kd is the constant that tells how readily two partners part at equilibrium.

Source of the values: article PMC10231317.
